Source: US6328728A, “Composition and method for enhancing electrotransport agent delivery” (Alza Corporation, priority 1997, dated 2001)

Assay: Measurement of circular dichroism (mean residue ellipticity at 222 nm)
Assay type: physicochemical
Conditions: for Ellipticity (mean residue at 222 nm) / Ellipticity (mean residue) (222 nm), raw / Ellipticity (mean residue) (222 nm), raw value: 32° C.
Description: In general, the structure of a polypeptide in an aqueous buffered solution is in constant flux between portions thereof being random coil and alpha-helix configurations. For the polypeptides used in the following examples, the predominant structure is a random coil since the alpha-helix configuration is unstable in the absence of bound surfactant. According to the present invention adding surfactant to an aqueous solution of a polypeptide stabilizes the alpha-helix configuration. Circular dichroism is a measurement of the amount of the alpha-helix configured polypeptide present in the solution. Thus, circular dichroism provides an indirect measurement of the degree of binding of the surfactant to the polypeptide. (See, for example, Epand R. M., Epand R. F., Orlowski R. C., Schuleter R. J., Boni L. T. and Hui S. W., Biochemistry 22, 5074-5084 (1983); Hui, S. W., Epand R. M., Dell K. R., Epand R. F. and Orlowski R. C., Biochimica Biophysica Acta 772, 264-272 (1984); Epand R. M., Epand R. F., and Orlowski R. C., International Journal Peptide Protein Research 25 105-111; Epand R. M., Epand R. F., Orlowski R. C., Seyler J. K. and Colescott R. L., Biochemistry 25, 1964-1968; Epand R. M., Seyler J. K. and Orlowski R. C., European Journal Biochemistry 159, 125-127 (1986); Wiersema P. H., Loeb A. L. and Overbeek, J., Colloid Interface Science 22, 78-99 (1966)).
The surfactant/peptide circular dichroism (CD) spectra were obtained in a 2 mm path-length cell (110-Q-2 Model, AVIV, Lakewood, N.J.) at 32° C. The cell was initially loaded with 0.60 mL of a solution containing about 0.25 mg/mL of the peptide in 10 mM sodium chloroacetate (pH 3.5) or 10 mM sodium borate (pH 9.0). The buffers were selected to minimize the effect of the temperature on the pH of the solution and to minimize light absorption, thereby optimizing the signal-to-noise ratio (SNR). The peptide concentration was determined by spectrophotometry, with log-log correction for light scattering. The surfactant concentration was increased step-wise by titration of concentrated surfactant stock directly into the CD cell, followed by eight inversions of the cell, with the air bubble providing the mixing turbulence. After mixing, the cell was placed into the AVIV 62 CD spectrometer (AVIV, Lakewood, N.J.). In order to approximate temperature and chemical equilibrium, the sample remained in the spectrometer 5 minutes before a reading was taken. The CD spectrum was taken using a band pass of 1 nm, a data interval of 1 nm, and a data averaging time of 10 seconds. The mean residue ellipticity is the ellipticity divided by the path length in cm times the amino acid residue concentration in decimoles/cm^3. See Methods in Enzymology, Vol 130, pp 208-269, Yang et al, "Calculation of Protein Conformation from Circular Dichroism" (1986).
The measurement procedures described above were conducted on an aqueous solution of the protein insulinotropin, with TWEEN® 20 (MW=1126 g/mol) as the surfactant, with the following modifications. The insulinotropin donor solution concentration was 0.12 mg/mL. One test was run in 10 mM sodium borate at pH 9.0 and another test in 10 mM sodium chloroacetate at pH 3.5.
Fractional changes (%δ) are defined as the difference between the reading at a given surfactant concentration (Ec) minus the reading at zero surfactant (E0), the quantity divided by the difference between the reading at saturated surfactant concentration (Es) minus the reading at zero surfactant (E0), i. e. %δ=(Ec -E0)/(Es-E0).
The measurement procedures described earlier were conducted on an aqueous solution of insulinotropin as the agent, and TWEEN® 40 (molecular weight 1282 g/mol) as the surfactant with the following changes. The insulinotropin concentration was initially 0.29 mg/mL, and 0.21 mg/mL after the final TWEEN® 40 addition and the temperature was held at 32° C. Two tests were conducted at two different concentrations of TWEEN® 40. […]

[1] = pH 3.5, 10 mM sodium chloroacetate, TWEEN 20 0
[2] = pH 3.5, 10 mM sodium chloroacetate, TWEEN 20 0.133 mM
[3] = pH 3.5, 10 mM sodium chloroacetate, TWEEN 20 0.266 mM
[4] = pH 9.0, 10 mM sodium borate, TWEEN 20 0
[5] = pH 9.0, 10 mM sodium borate, TWEEN 20 0.133 mM
[6] = pH 9.0, 10 mM sodium borate, TWEEN 20 0.266 mM
[7] = pH 9.0, 10 mM sodium borate, TWEEN 20 0.515 mM
[8] = pH 9.0, 10 mM sodium borate, TWEEN 20 1.00 mM
[9] = pH 9.0, 10 mM sodium borate, TWEEN 20 1.67 mM
[10] = pH 9.0, 10 mM sodium borate, TWEEN 20 2.56 mM
[11] = pH 9.0, 10 mM sodium borate, TWEEN 20 2.66 mM
[12] = pH 9.0, 10 mM sodium borate, TWEEN 20 4.00 mM
[13] = pH 9.0, 10 mM sodium borate, TWEEN 20 5.00 mM
[14] = pH 9.0, 10 mM sodium borate, TWEEN 20 7.04 mM
[15] = pH 9.0, 10 mM sodium borate, TWEEN 20 7.26 mM
[16] = pH 9.0, 10 mM sodium borate, TWEEN 20 9.41 mM
[17] = pH 9.0, 10 mM sodium borate, TWEEN 20 12.3 mM
[18] = pH 9.0, 10 mM sodium borate, TWEEN 20 17.7 mM
[19] = pH 9.0, 10 mM sodium borate, TWEEN 20 20.0 mM
[20] = pH 9.0, 10 mM sodium borate, TWEEN 20 22.1 mM

## Insulinotropin: the protein insulinotropin
pH 3.5, 10 mM sodium chloroacetate, DTAC 0
  Ellipticity (mean residue at 222 nm): -4268 deg-cm^2 /dmol
pH 3.5, 10 mM sodium chloroacetate, DTAC 0.83 mM
  Ellipticity (mean residue at 222 nm): -5182 deg-cm^2 /dmol
pH 3.5, 10 mM sodium chloroacetate, DTAC 1.64 mM
  Ellipticity (mean residue at 222 nm): -7285 deg-cm^2 /dmol
pH 3.5, 10 mM sodium chloroacetate, DTAC 3.23 mM
  Ellipticity (mean residue at 222 nm): -9863 deg-cm^2 /dmol
pH 3.5, 10 mM sodium chloroacetate, DTAC 5.51 mM
  Ellipticity (mean residue at 222 nm): -11672 deg-cm^2 /dmol
pH 3.5, 10 mM sodium chloroacetate, DTAC 9.10 mM
  Ellipticity (mean residue at 222 nm): -11951 deg-cm^2 /dmol
pH 3.5, 10 mM sodium chloroacetate, DTAC 13.0 mM
  Ellipticity (mean residue at 222 nm): -12219 deg-cm^2 /dmol
pH 3.5, 10 mM sodium chloroacetate, DTAC 25.0 mM
  Ellipticity (mean residue at 222 nm): -12326 deg-cm^2 /dmol
[1]
  Ellipticity (mean residue) (222 nm), raw: -4877
  Ellipticity, fractional change (% δ): 0
[2]
  Ellipticity (mean residue) (222 nm), raw: -7087
  Ellipticity, fractional change (% δ): 0.21
[3]
  Ellipticity (mean residue) (222 nm), raw: -8437
  Ellipticity, fractional change (% δ): 0.34
pH 3.5, 10 mM sodium chloroacetate, TWEEN 40 0
  Ellipticity (mean residue at 222 nm): -4621 deg-cm^2 /dmol
pH 3.5, 10 mM sodium chloroacetate, TWEEN 40 0.025 mM
  Ellipticity (mean residue at 222 nm): -4997 deg-cm^2 /dmol
pH 3.5, 10 mM sodium chloroacetate, TWEEN 40 0.092 mM
  Ellipticity (mean residue at 222 nm): -6045 deg-cm^2 /dmol
pH 3.5, 10 mM sodium chloroacetate, TWEEN 40 0.214 mM
  Ellipticity (mean residue at 222 nm): -7317 deg-cm^2 /dmol
pH 3.5, 10 mM sodium chloroacetate, TWEEN 40 0.390 mM
  Ellipticity (mean residue at 222 nm): -8554 deg-cm^2 /dmol
pH 3.5, 10 mM sodium chloroacetate, TWEEN 40 0.718 mM
  Ellipticity (mean residue at 222 nm): -10379 deg-cm^2 /dmol
pH 3.5, 10 mM sodium chloroacetate, TWEEN 40 1.21 mM
  Ellipticity (mean residue at 222 nm): -12282 deg-cm^2 /dmol
pH 3.5, 10 mM sodium chloroacetate, TWEEN 40 2.06 mM
  Ellipticity (mean residue at 222 nm): -14017 deg-cm^2 /dmol
pH 3.5, 10 mM sodium chloroacetate, TWEEN 20 0.515 mM
  Ellipticity, fractional change (% δ): 0.58
pH 3.5, 10 mM sodium chloroacetate, TWEEN 20 1.00 mM
  Ellipticity, fractional change (% δ): 0.59
pH 3.5, 10 mM sodium chloroacetate, TWEEN 20 1.67 mM
  Ellipticity, fractional change (% δ): 0.91
pH 3.5, 10 mM sodium chloroacetate, TWEEN 20 2.28 mM
  Ellipticity, fractional change (% δ): 0.96
pH 3.5, 10 mM sodium chloroacetate, TWEEN 20 3.20 mM
  Ellipticity, fractional change (% δ): 0.97
pH 3.5, 10 mM sodium chloroacetate, TWEEN 20 4.44 mM
  Ellipticity, fractional change (% δ): 1.00
[4]
  Ellipticity (mean residue) (222 nm), raw value: -5010
  Ellipticity, fractional change (% δ): 0
[5]
  Ellipticity (mean residue) (222 nm), raw value: -5641
  Ellipticity, fractional change (% δ): .11
[6]
  Ellipticity (mean residue) (222 nm), raw value: -6252
  Ellipticity, fractional change (% δ): .21
[7]
  Ellipticity (mean residue) (222 nm), raw value: -6553
  Ellipticity, fractional change (% δ): .26
[8]
  Ellipticity (mean residue) (222 nm), raw value: -7050
  Ellipticity, fractional change (% δ): .35
[9]
  Ellipticity (mean residue) (222 nm), raw value: -7857
  Ellipticity, fractional change (% δ): .49
[10]
  Ellipticity (mean residue) (222 nm), raw value: -7915
  Ellipticity, fractional change (% δ): .50
[11]
  Ellipticity (mean residue) (222 nm), raw value: -8970
  Ellipticity, fractional change (% δ): .68
[12]
  Ellipticity (mean residue) (222 nm), raw value: -9165
  Ellipticity, fractional change (% δ): .71
[13]
  Ellipticity (mean residue) (222 nm), raw value: -9124
  Ellipticity, fractional change (% δ): .70
[14]
  Ellipticity (mean residue) (222 nm), raw value: -10288
  Ellipticity, fractional change (% δ): .90
[15]
  Ellipticity (mean residue) (222 nm), raw value: -9702
  Ellipticity, fractional change (% δ): .80
[16]
  Ellipticity (mean residue) (222 nm), raw value: -10451
  Ellipticity, fractional change (% δ): .92
[17]
  Ellipticity (mean residue) (222 nm), raw value: -10540
  Ellipticity, fractional change (% δ): .94
[18]
  Ellipticity (mean residue) (222 nm), raw value: -10709
  Ellipticity, fractional change (% δ): .97
[19]
  Ellipticity (mean residue) (222 nm), raw value: -10876
  Ellipticity, fractional change (% δ): 1.00
[20]
  Ellipticity (mean residue) (222 nm), raw value: -10872
  Ellipticity, fractional change (% δ): 1.00
